Reference: the DeepSol protein solubility set

Assay: soluble on expression in E. coli; label from the status in PepcDB or PDB records

Sequence	soluble on expression in E. coli
MSSTKQKALKKIAKCLELGNSANVNEAAQAIKMAHRLMLKYGLEKDDIEFIKMGKTQSIHLLPANVGSNILKIIRGINTRFGVEAVLLNHKGLKKVEFIGSADRAIFAAFAFDIVYREMNEQTGQFKNSFAGTGTGQLEVTKRVNSFLAGWIEGALEKLPVIAPDEDSANKINDYIDKEFKNIDRETFKQQLKEAMANITADYEKGLKKGRTISVNRPVAGAQAPKLLK	not soluble
MSSVPQSKQELELAIHSVFPKLMADYRSIPAQMSRVCSIDGNIQGTQISVCDTVAYLIGWGKLVLKWYELTSQTLPVDFPDTGYKWNQLELLADRFHQEYHQWQYSDLLNEYELTMAKLLTLIASLSVQQLYGIAWYDKWTLGRMIQFNTYSPMKNMRTKVRRFKKDNALKLEHHHHHH	not soluble
MSSYDVVIIGGGPAGLFAAYELAGLAKDNVSNYKILLVDKGARASKRTCPLLSPKEKCTFCDPCHIMYGFGGAGTFSSGIINLRPDIGGELHEITRSWDKAQELINYVDDIFVKFGAPKDRVFEPNMEKVREIQRRAAKVGAEFVPIRQRHMGTDKTPLIIENIVNYVEKRGIKIGELTEVIDIEKKGNKFFLKTSRGEIESRIVLVAPGRAGAKWFYEQSKKLGVDTIPGPLDIGVRVETESFVFDELTEAVWDPKVILYSKRYDDKVRTFCVNPRGYIMKEVYDDGTIGVNGETYVDKKSNNTNFAFLTTIKLSDPLEDTIEYGKSIARLMTRLGGGKPILQRLIDFQKGRRSTWERINRSTVKPTLRDVTPGDISMGLPYRVVDNLIDGLERLDSIAPGIFSSNTLLYAPEIKYYSVRAVVDNNMETVVDNLFAAGDGTGLSRGINVAAATGILAARGIAIKLGLDLEHHHHHH	not soluble
MSSYQQKQTFTPPPQLQQQQVKQPSQPPPQEIFVPTTKEPCHSKVPQPGNTKIPEPGCTKVPEPGCTKVPEPGCTKVPEPGCTKVPEPGCTKVPEPGYTKVPEPGSIKVPDQGFIKFPEPGAIKVPEQGYTKVPVPGYTKVPEPCPSTVTPGPAQQKTKQK	soluble
MSTAAETTGGDIEPWEEVTPDAARRLLVAAVEAFAERGYHATTTRDIAGRAGMSPAALYIHYKTKEELLHRISRIGHTRAVAILRSAAQGEGSAAERLADAVSSFVRWHAGRRTTARVVQYELDALGPEAREEILTLRRQCDAAVRGIIDDGVAAGEFDVPDVKGTTLAVLSLCIDVARWFNVNGPRTPDEVGALYADLVLRMVGAEPSGATAQR	not soluble
MSTDLQHIRIGLTNNHPCSYLPERQERVAVALDAELHTEQNYQLLMANGFRRSGDTIYKPHCERCHACQPIRISIPDFVLSRSQKRLLSKAKSLRWEMKTEMDAEWFELYSRYICKRHKNGTMYPPKRDEFSRFAQTTWLTTLFLHIYDESNQLLGVAVTDVMAQCSSAFYTFFEPDYPLSLGTLAVLYQVNYCQQNNEQWLYLGYQIDECPAMNYKTRFQRHQRLVNQRWQGLEHHHHHH	soluble
MSTHIQRSALLPYPARALFDLVNDVKRYPEFLPWCSASQVLEESESLMRAELTVAKGSLSQRFTTRNVLVPGASIEMNLENGPFTELHGVWQFKALGEKACKITLDLTFDYAGPLVKATLGPLFTQAANTMVDAFCQRAKQLYG	not soluble
MSTIPSEIINWTILNEIISMDDDDSDFSKGLIIQFIDQAQTTFAQMQRQLDGEKNLTELDNLGHFLKGSSAALGLQRIAWVCERIQNLGRKMEHFFPNKTELVNTLSDKSIINGINIDEDDEEIKIQVDDKDENSIYLILIAKALNQSRLEFKLARIELSKYYNTNLH	soluble
MSTMSSPIYIQIHNQIKQAIEAGRWAVGDRIPSERELATQFDVSRMTLRQAIQTLVDEGILERRVGAGTFVANQKVQEKMSGVTSFTDLMLAQGKVPSSKTISYHVTSPSLSESEKLALGANEQVLRMERIRYGDDVPICFEVATVPERLVKQFTKDEITSSLYRTLEEKASLVPGKAQQTVSAMSASERIAEYLSVRRGDALLRLRQISYLQTGEPFEYVRTQYVGNRFEFYLEK	not soluble
MSTNFEKHFQENVDECTLEQLRDILVNKSGKTVLANRFRALFNLKTVAEEFATKPEEAKKAIEYIAESFVNDKSELLKHEVAYVLGQTKNLDAAPTLRHVMLDQNQEPMVRHEAAEALGALGDKDSLDDLNKAAKEDPHVAVRETCELAINRINWTHGGAKDKENLQQSLYSSIDPAPPLPLEKDATIPELQALLNDPKQPLFQRYRAMFRLRDIGTDEAILALATGFSAESSLFKHEIAYVFGQIGSPAAVPSLIEVLGRKEEAPMVRHEAAEALGAIASPEVVDVLKSYLNDEVDVVRESCIVALDMYDYENSNELEYAPTAN	soluble
MSTNIFLHLPTTISTERTILRKTSFADATTLFDIWSDNDVAQFMNIEKFSTILQAEEMIQAIENEPNACRYTIFTMDNSLKAIGSLGINDINKNNQTIEIGYELAKSHWRQGLMFEILTTFLNTTKAHLPYKTITAKVLPENIASIKLLTKLGFELISTGQELDLHSGKICEISNYQLILN	not soluble
MSTTRKLILANIHGVDKPGVTAELTAILAKHNAFILDIGQADIHNNLSLGILFQTDESHSGSILKDLLFKSYELDVTVRFEPITEEAYSEWVGMQGRNRYIITVVARKITAEMIAGIARSSAEQGLNIDDIKRLTGRIPLNETDRSPKASVEFSMRGTPTDIEKLQRNFMEMASQLNMDISFQRESMFR	not soluble
MSTTTAITSTLQRVTKAPEGRRMLRVEARNSQTPIESKPRWIRTAVKTGPEYQDMKKKVSGASLHTVCQEAGCPNIHECWESREATFLIGGANCSRRCDFCQINSAKPEPLDRDEPRRVAESVREMQLNYSTITGVTRDDLEDEGAWLYAEVVRKIHELNPHTGVENLTPDFSGKPDLLQEVFEARPEVFAHNLETVPRIFKRIRPAFRYERSLDVIRQARDFGLVTKSNLILGMGETVDEIRDALVDLHSAGCDIITITQYLRPGPMYHPIDRWVKPEEFIDHADFARELGFGAVMSGPLVRSSYRAGKLYAEALAARGESLPENLAHLATTADGSTAQEANTLLEKYGPSQDTPVVSSKA	not soluble
MSTVVSEGRNDGNNRYSPQDEVEDRLPDVVDNRLTENMRVPSFERLPSPTPRYFGSCKWFNVSKGYGFVIDDITGEDLFVHQSNLNMQGFRSLDEGERVSYYIQERSNGKGREAYAVSGEVEGQGLKGSRIHPLGRKKAVSLRCFRCGKFATHKAKSCPNVKTDAKVCYTCGSEEHVSSICPERRRKHRPEQVAAEEAEAARMAAEKSSPTTSDDDIREKNSNSSDE	not soluble
MSTYSSPFSRLLHPFSSPPLRPHQDSTTRQTVFIYSSPPVNSSMATDNVRLERMEIGMQLLLLRMAEKDGEAEKLARAELITEANLGGQGETTQLNPLVPVSKATAEKLSNELDEVGRNRTARWSKSGRTCVVS	not soluble
MSVEKTCRYLSLFLVASLTGCGFHLRGSETSDGAGQVLFLEKAGSTRVGSRLPDAIRLTGAQLTRNMVDAKGVIRILKETDERRTMSLNLGGRGNLFDLYTRVRYEVTTPQGEIIIPPQEVEVKREYFNNQLSPIGQGEEESLLRSEMERELAETLVRRVLIEMSRNPGGKSLEHHHHHH	soluble
MSVELWQQCVDLLRDELPSQQFNTWIRPLQVEAEGDELRVYAPNRFVLDWVNEKYLGRLLELLGERGEGQLPALSLLIGSKRSRTPRAAIVPSQTHVAPPPPVAPPPAPVQPVSAAPVVVPREELPPVTTAPSVSSDPYEPEEPSIDPLAAAMPAGAAPAVRTERNVQVEGALKHTSYLNRTFTFENFVEGKSNQLARAAAWQVADNLKHGYNPLFLYGGVGLGKTHLMHAVGNHLLKKNPNAKVVYLHSERFVADMVKALQLNAINEFKRFYRSVDALLIDDIQFFARKERSQEEFFHTFNALLEGGQQVILTSDRYPKEIEGLEERLKSRFGWGLTVAVEPPELETRVAILMKKAEQAKIELPHDAAFFIAQRIRSNVRELEGALKRVIAHSHFMGRPITIELIRESLKDLLALQDKLVSIDNIQRTVAEYYKIKISDLLSKRRSRSVARPRQVAMALSKELTNHSLPEIGVAFGGRDHTTVLHACRKIAQLRESDADIREDYKNLLRTLTT	not soluble
